Molecular target: T1, angiotensin type 2 receptor (human (endogenous in RPTCs), UniProt P50052 1-363)
T1 sequence (looked up): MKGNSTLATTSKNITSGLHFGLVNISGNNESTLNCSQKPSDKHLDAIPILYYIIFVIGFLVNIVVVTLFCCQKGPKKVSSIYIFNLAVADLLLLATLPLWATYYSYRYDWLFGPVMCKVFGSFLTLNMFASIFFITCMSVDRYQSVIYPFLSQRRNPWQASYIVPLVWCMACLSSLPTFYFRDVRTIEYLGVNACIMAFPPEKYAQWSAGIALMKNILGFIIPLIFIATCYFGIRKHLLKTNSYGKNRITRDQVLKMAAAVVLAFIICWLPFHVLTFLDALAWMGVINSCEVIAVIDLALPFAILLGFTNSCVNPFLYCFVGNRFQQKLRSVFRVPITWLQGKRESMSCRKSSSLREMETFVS
Test: FRET or BRET

fold increase of corrected FRET after FEN stimulation vs. control: 1.96 fold
B1: dopamine D1 receptor (receptor, human (endogenous in nRPTCs), UniProt P21728 1-446, looked up)
chain: MRTLNTSAMDGTGLVVERDFSVRILTACFLSLLILSTLLGNTLVCAAVIRFRHLRSKVTNFFVISLAVSDLLVAVLVMPWKAVAEIAGFWPFGSFCNIWVAFDIMCSTASILNLCVISVDRYWAISSPFRYERKMTPKAAFILISVAWTLSVLISFIPVQLSWHKAKPTSPSDGNATSLAETIDNCDSSLSRTYAISSSVISFYIPVAIMIVTYTRIYRIAQKQIRRIAALERAAVHAKNCQTTTGNGKPVECSQPESSFKMSFKRETKVLKTLSVIMGVFVCCWLPFFILNCILPFCGSGETQPFCIDSNTFDVFVWFGWANSSLNPIIYAFNADFRKAFSTLLGCYRLCPATNNAIETVSINNNGAAMFSSHHEPRGSISKECNLVYLIPHAVGSSEDLKKEEAAGIARPLEKLSPALSVILDYDTDVSLEKIQPITQNGQHPT

Source: publication PMC3406928 (Hypertension, 2012)
